{"source": "the supplement of paper PMC10567573", "parents": {"B1": {"name": "MTMR15 (parent)", "chain": "FSPDFTLRNTLKSTSEDSLVKQEC"}}}
{"variants_of": "B1", "experiment": "protein stability index of a GFP-peptide fusion (GPS, HEK-293T) (PSI 1-6); higher = more stable", "conditions": "c terminus: a fixed tail appended"}
{"variant": "FSPDFTLRNTLKSTSEDSCVKQEC", "note": "[L19C]", "protein stability index": 2.15}
{"variant": "FSPDFTLRNTLKSTSEDSSVKQEC", "note": "[L19S]", "protein stability index": 1.97}
{"variant": "FSPDFTLRNTLKSTSEDSKVKQEC", "note": "[L19K]", "protein stability index": 1.85}
{"variant": "FSPDFTLRNTLKFTSEDSLVKQEC", "note": "[S13F]", "protein stability index": 2.13}
{"variant": "FSPDFTLRNTLKCTSEDSLVKQEC", "note": "[S13C]", "protein stability index": 2.08}
{"variant": "FSPDFTLRNTLKATSEDSLVKQEC", "note": "[S13A]", "protein stability index": 1.9}
{"variant": "FSPDFTLRNTLKWTSEDSLVKQEC", "note": "[S13W]", "protein stability index": 2.66}
{"variant": "FSPFFTLRNTLKSTSEDSLVKQEC", "note": "[D4F]", "protein stability index": 1.53}
{"variant": "FSPYFTLRNTLKSTSEDSLVKQEC", "note": "[D4Y]", "protein stability index": 3.03}
{"variant": "FSPCFTLRNTLKSTSEDSLVKQEC", "note": "[D4C]", "protein stability index": 1.78}
{"variant": "FSPDFTLRNTLLSTSEDSLVKQEC", "note": "[K12L]", "protein stability index": 2.28}
{"variant": "FSPDFTLRNTLTSTSEDSLVKQEC", "note": "[K12T]", "protein stability index": 1.67}
{"variant": "FSPDFTLRNTLHSTSEDSLVKQEC", "note": "[K12H]", "protein stability index": 1.71}
{"variant": "FSPDFTLRNTLDSTSEDSLVKQEC", "note": "[K12D]", "protein stability index": 2.27}
{"variant": "FSPDFVLRNTLKSTSEDSLVKQEC", "note": "[T6V]", "protein stability index": 1.82}
{"variant": "FSPDFTLRNTLKSTSEDSLVKQIC", "note": "[E23I]", "protein stability index": 1.72}
{"variant": "FSPDFTLRNTLKSTSEDSLVKQKC", "note": "[E23K]", "protein stability index": 1.61}
{"variant": "FSPDFTLRNTLKSTSEDRLVKQEC", "note": "[S18R]", "protein stability index": 2.3}
{"variant": "FSPDFTLRNTLKSTSEDVLVKQEC", "note": "[S18V]", "protein stability index": 1.84}
{"variant": "FSPDFTLRNTLKSTSEDYLVKQEC", "note": "[S18Y]", "protein stability index": 2.41}
{"variant": "FSPDFTLRNTLKSTSEDILVKQEC", "note": "[S18I]", "protein stability index": 3.61}
{"variant": "FSPDFTLRNTLKSTSEDDLVKQEC", "note": "[S18D]", "protein stability index": 1.76}
{"variant": "FSPDFTLRNTLKSTSEDSLVHQEC", "note": "[K21H]", "protein stability index": 2.83}
{"variant": "FSPDFTLRNTLKSTSEDSLVMQEC", "note": "[K21M]", "protein stability index": 2.86}
{"variant": "FSPDFTLRNTLKSTSEDSLVCQEC", "note": "[K21C]", "protein stability index": 2.69}
{"variant": "FSPDFTLRNTLKSTSEDSLVQQEC", "note": "[K21Q]", "protein stability index": 2.33}
{"variant": "FSPDFTLRNTLKSTSEDSLVEQEC", "note": "[K21E]", "protein stability index": 2.52}
{"variant": "FSPDWTLRNTLKSTSEDSLVKQEC", "note": "[F5W]", "protein stability index": 3.6}
{"variant": "FSPDFTLRQTLKSTSEDSLVKQEC", "note": "[N9Q]", "protein stability index": 1.96}
{"variant": "FSPDFTLRITLKSTSEDSLVKQEC", "note": "[N9I]", "protein stability index": 2.41}
{"variant": "FSPDFTLRMTLKSTSEDSLVKQEC", "note": "[N9M]", "protein stability index": 2.64}
{"variant": "FSPDFTLRKTLKSTSEDSLVKQEC", "note": "[N9K]", "protein stability index": 2.11}
{"variant": "FSPDFTLRPTLKSTSEDSLVKQEC", "note": "[N9P]", "protein stability index": 1.82}
{"variant": "FSPDFTLRATLKSTSEDSLVKQEC", "note": "[N9A]", "protein stability index": 1.67}
{"variant": "FSLDFTLRNTLKSTSEDSLVKQEC", "note": "[P3L]", "protein stability index": 2.24}
{"variant": "FSNDFTLRNTLKSTSEDSLVKQEC", "note": "[P3N]", "protein stability index": 3.08}
{"variant": "FSIDFTLRNTLKSTSEDSLVKQEC", "note": "[P3I]", "protein stability index": 2.44}
{"variant": "FTPDFTLRNTLKSTSEDSLVKQEC", "note": "[S2T]", "protein stability index": 2.23}
{"variant": "FIPDFTLRNTLKSTSEDSLVKQEC", "note": "[S2I]", "protein stability index": 1.92}
{"variant": "FKPDFTLRNTLKSTSEDSLVKQEC", "note": "[S2K]", "protein stability index": 4.27}
{"variant": "FNPDFTLRNTLKSTSEDSLVKQEC", "note": "[S2N]", "protein stability index": 3.68}
{"variant": "FWPDFTLRNTLKSTSEDSLVKQEC", "note": "[S2W]", "protein stability index": 3.6}
{"variant": "FRPDFTLRNTLKSTSEDSLVKQEC", "note": "[S2R]", "protein stability index": 4.02}
{"variant": "FPPDFTLRNTLKSTSEDSLVKQEC", "note": "[S2P]", "protein stability index": 2.9}
{"variant": "MSPDFTLRNTLKSTSEDSLVKQEC", "note": "[F1M]", "protein stability index": 4.87}
{"variant": "FSPDFTLRNTLKSTSEDSLVKQEW", "note": "[C24W]", "protein stability index": 2.18}
{"variant": "FSPDFTLRNTLKSTSEDSLVKQEM", "note": "[C24M]", "protein stability index": 2.74}
{"variant": "FSPDFTLRNTLKSTSEDSLVKQER", "note": "[C24R]", "protein stability index": 2.34}
{"variant": "FSPDFTLRNTLKSTSEDSLVKQEK", "note": "[C24K]", "protein stability index": 1.4}
{"variant": "FSPDFTLRNTLKSTSEDSLVKQEY", "note": "[C24Y]", "protein stability index": 3.07}
{"variant": "FSPDFTLRNTLKSTSEDSLVKQEL", "note": "[C24L]", "protein stability index": 2.03}
{"variant": "FSPDFTLRNTLKSPSEDSLVKQEC", "note": "[T14P]", "protein stability index": 1.69}
{"variant": "FSPDFTLRNTLKSDSEDSLVKQEC", "note": "[T14D]", "protein stability index": 2.1}
{"variant": "FSPDFTLRNTLKSSSEDSLVKQEC", "note": "[T14S]", "protein stability index": 2.1}
{"variant": "FSPDFTLRNTLKSKSEDSLVKQEC", "note": "[T14K]", "protein stability index": 1.73}
{"variant": "FSPDFTLRNTLKSGSEDSLVKQEC", "note": "[T14G]", "protein stability index": 2.49}
{"variant": "FSPDFTLRNTHKSTSEDSLVKQEC", "note": "[L11H]", "protein stability index": 1.76}
{"variant": "FSPDFTLRNTEKSTSEDSLVKQEC", "note": "[L11E]", "protein stability index": 2.25}
{"variant": "FSPDFTLRNTSKSTSEDSLVKQEC", "note": "[L11S]", "protein stability index": 2.04}
{"variant": "FSPDFTLRNTLKSTKEDSLVKQEC", "note": "[S15K]", "protein stability index": 1.73}
{"variant": "FSPDFTLRNTLKSTWEDSLVKQEC", "note": "[S15W]", "protein stability index": 2.02}
{"variant": "FSPDFTLRNTLKSTSYDSLVKQEC", "note": "[E16Y]", "protein stability index": 1.83}
{"variant": "FSPDFTLRNTLKSTSDDSLVKQEC", "note": "[E16D]", "protein stability index": 2.54}
{"variant": "FSPDFTLRNTLKSTSADSLVKQEC", "note": "[E16A]", "protein stability index": 1.67}
{"variant": "FSPDFTLRNTLKSTSRDSLVKQEC", "note": "[E16R]", "protein stability index": 1.76}
{"variant": "FSPDFTLRNTLKSTSIDSLVKQEC", "note": "[E16I]", "protein stability index": 1.91}
{"variant": "FSPDFTCRNTLKSTSEDSLVKQEC", "note": "[L7C]", "protein stability index": 2.25}
{"variant": "FSPDFTWRNTLKSTSEDSLVKQEC", "note": "[L7W]", "protein stability index": 2.16}
{"variant": "FSPDFTIRNTLKSTSEDSLVKQEC", "note": "[L7I]", "protein stability index": 2.3}
{"variant": "FSPDFTERNTLKSTSEDSLVKQEC", "note": "[L7E]", "protein stability index": 2.99}
{"variant": "FSPDFTLRNTLKSTSEDSLCKQEC", "note": "[V20C]", "protein stability index": 1.74}
{"variant": "FSPDFTLRNTLKSTSEDSLTKQEC", "note": "[V20T]", "protein stability index": 2.01}
{"variant": "FSPDFTLRNTLKSTSEDSLSKQEC", "note": "[V20S]", "protein stability index": 2.04}
{"variant": "FSPDFTLRNTLKSTSEDSLIKQEC", "note": "[V20I]", "protein stability index": 2.19}
{"variant": "FSPDFTLRNTLKSTSEDSLDKQEC", "note": "[V20D]", "protein stability index": 2.08}
{"variant": "FSPDFTLRNTLKSTSEDSLVKKEC", "note": "[Q22K]", "protein stability index": 1.62}
{"variant": "FSPDFTLRNTLKSTSEDSLVKLEC", "note": "[Q22L]", "protein stability index": 1.88}
{"variant": "FSPDFTLRNTLKSTSEDSLVKDEC", "note": "[Q22D]", "protein stability index": 1.92}
{"variant": "FSPDFTLRNTLKSTSEDSLVKCEC", "note": "[Q22C]", "protein stability index": 2.06}
{"variant": "FSPDFTLRNTLKSTSEISLVKQEC", "note": "[D17I]", "protein stability index": 2.58}
{"variant": "FSPDFTLRNTLKSTSEASLVKQEC", "note": "[D17A]", "protein stability index": 1.89}
{"variant": "FSPDFTLRNTLKSTSEQSLVKQEC", "note": "[D17Q]", "protein stability index": 2.37}
{"variant": "FSPDFTLRNTLKSTSENSLVKQEC", "note": "[D17N]", "protein stability index": 1.8}
{"variant": "FSPDFTLRNTLKSTSELSLVKQEC", "note": "[D17L]", "protein stability index": 2.36}
{"variant": "FSPDFTLENTLKSTSEDSLVKQEC", "note": "[R8E]", "protein stability index": 3.28}
{"variant": "FSPDFTLLNTLKSTSEDSLVKQEC", "note": "[R8L]", "protein stability index": 2.36}
{"variant": "FSPDFTLTNTLKSTSEDSLVKQEC", "note": "[R8T]", "protein stability index": 1.73}
{"variant": "FSPDFTLMNTLKSTSEDSLVKQEC", "note": "[R8M]", "protein stability index": 1.77}
{"variant": "FSPDFTLVNTLKSTSEDSLVKQEC", "note": "[R8V]", "protein stability index": 2.14}
{"variant": "FSPDFTLRNFLKSTSEDSLVKQEC", "note": "[T10F]", "protein stability index": 2.7}
{"variant": "FSPDFTLRNDLKSTSEDSLVKQEC", "note": "[T10D]", "protein stability index": 1.99}
{"variant": "FSPDFTLRNVLKSTSEDSLVKQEC", "note": "[T10V]", "protein stability index": 1.76}
{"variant": "FSPDFTLRNPLKSTSEDSLVKQEC", "note": "[T10P]", "protein stability index": 1.7}
{"variant": "FSPDFTLRNKLKSTSEDSLVKQEC", "note": "[T10K]", "protein stability index": 1.72}
